Earlier results, collected in paper PMC8410215.

Biological target: Glu66 (UniProt position 148, FTKKMEENAKK)
Conditions: folded protein with Glu66 buried in the interior; water molecules penetrate to form a small channel around the residue

Substance: Staphylococcal nuclease V66E variant (Staphylococcus aureus; V66E)
- pKa: 8.8
